Experimental data as given in US8852587B2 (priority 2008, dated 2014).
Entries after “also recorded” stand apart in the source; their conditions may differ. Like-named read-outs stand apart in the source and are kept apart here. Square brackets hold non-standard residues; d marks the D form. Peptide text beside a SMILES is read from it.

Columns and labels:
PrP^C and PrP^Sc = PrP^C and PrP^Sc (Mus musculus, UniProt P04925); format: binding
recombinant mouse PrP [1] = target: T1, recombinant mouse PrP (Mus musculus, UniProt P04925); format: binding
Target sequence in this assay (P04925 23-230 limits assumed): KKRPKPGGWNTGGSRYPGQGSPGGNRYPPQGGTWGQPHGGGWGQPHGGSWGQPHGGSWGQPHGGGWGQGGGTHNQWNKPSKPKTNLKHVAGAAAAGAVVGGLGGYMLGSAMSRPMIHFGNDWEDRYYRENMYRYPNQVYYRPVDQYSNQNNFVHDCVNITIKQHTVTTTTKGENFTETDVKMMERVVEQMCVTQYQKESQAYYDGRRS

ScN2a cells = format: cell-based, murine
scrapie (RML) prions [2] = test system: scrapie (RML) prions; parameters: species or system CD1 mice; conditions: in vivo
PrP = PrP (Mus musculus, UniProt P04925); parameters: species or system 129 SvEv mice; conditions: in vivo
recombinant mouse PrP [3] = target: T1, recombinant mouse PrP; assay: biochemical; format: binding
PrP^Sc in ScN2a cells [4] = test system: PrP^Sc in ScN2a cells
scrapie (RML) prions [5] = test system: scrapie (RML) prions; parameters: species or system C57/B6 mice; conditions: mouse, in vivo, ip
[6] = test system: MBPAc1-11 T cell receptor transgenic CD4+ T cells; format: cell-based, mouse
[7] = target: sheep PrP^C and sheep prions (Ovis aries, UniProt P23907)
[8] = test system: prions in treated ScN2a cells; parameters: species or system tg20 mice; conditions: mouse, in vivo
PrP^Sc in ScN2a cells [9] = test system: PrP^Sc in ScN2a cells; remark: listed apart in the source
recombinant mouse PrP [10] = target: T1, recombinant mouse PrP

PrP, sequence (P04925 23-230 limits assumed): as above

H-YFCARWNWERDAMDYWG-OH [CDR3H]
PrP conformer recognized by immunoprecipitation / pull-down (PrP^C and PrP^Sc): conformation-specific recognition of only PrP^Sc; also recorded: pulled down only PrP^Sc in a conformation-specific manner; also recorded: pulled down only PrP from scrapie-infected homogenates
binding by enzyme-linked immunosorbent assay (recombinant mouse PrP [1]): weak binding to recombinant mouse PrP
competition of staining by scFvW226 (ScN2a cells): could be competed by scFvW226
digestion by trypsin / protease resistance (ScN2a cells): could be digested by trypsin
staining pattern of live ScN2a cells (ScN2a cells): stained only intracellular compartments
survival of the one surviving immunized mouse (scrapie (RML) prions [2]; ip): > 10 months
protection from prion disease (scrapie (RML) prions [2]; mouse): able to protect from prion disease
average incubation time of the four immunized mice that died (scrapie (RML) prions [2]; mouse, ip): 205 days
clones that only recognized the immunogen (PrP): 8
hybridoma secreting mABs recognizing both the immunogen and mouse PrP (PrP): 28

CSCC[C@@H](NC(=O)[C@@H](CC(=O)O)NC(=O)[C@@H](Cc1ccc(O)cc1)NC(=O)[C@@H](Cc1c[nH]c2ccccc12)NC(=O)CN)C(=O)N[C@H](C)C(=O)N[C@H](CC(=O)O)C(=O)N[C@H](CCCNC(=N)N)C(=O)N[C@H](CCC(=O)O)C(=O)N[C@H](Cc1c[nH]c2ccccc12)C(=O)N[C@H](CC(N)=O)C(=O)N[C@H](Cc1c[nH]c2ccccc12)C(=O)N[C@H](CCCNC(=N)N)C(=O)N[C@H](C)C(=O)N[C@H](CS)C(=O)N[C@H](Cc1ccccc1)C(=O)N[C@H](Cc1ccc(O)cc1)C(=O)O [(D-)riCDR3H, gwydmadrewnwracfy] (H-G[dW][dY][dD][dM][dA][dD][dR][dE][dW][dN][dW][dR][dA][dC][dF][dY]-OH)
Kd (recombinant mouse PrP [3]): 1000 to 10000 nM
PrP conformer recognized by immunoprecipitation / pull-down (PrP^C and PrP^Sc): pulled down only PrP^Sc in a conformation-specific manner; also recorded: pulled down only PrP from scrapie-infected homogenates
competition of staining by scFvW226 (ScN2a cells): could be competed by scFvW226
staining pattern of live ScN2a cells (ScN2a cells): staining all over the cell
overcoming self tolerance of humoral immune response against PrP (PrP): able to overcome self tolerance of humoral immune response against PrP
antiprion activity (prion clearing) of fragments (PrP^Sc in ScN2a cells [4]): reinstated antiprion activity
concentration at which antiprion activity was exhibited (PrP^Sc in ScN2a cells [4]): 4 µM

B1: mAB W226 (antibody, V domains shown)
VH: EVQLQQSGAELARPGTSVNLSCKTSGYSFTGYGVSWVKQRIGQGLEWIGEIYPRSGNTYYNEKFKGKATLTADKSSNTAYMELRSLTSEDSAVYFCARWNWERDAMDYWGQGTSVTVSSAKTTPPSDYPLA
VL: DIVMTQTPLSLPVSLGDQASISCRSSQSLESSSGYPHLNWYLQKPGQSPQLLIYRVSNRFSGVLDRFSGSGSGTDFTLQISRVEAEDLGVYFCLQITHVPWTFGGGTKLEIKRADAAPTVSAA
Kd (recombinant mouse PrP [3]; read-out: KD): 0.5 nM
PrP conformer recognized by immunoprecipitation / pull-down (PrP^C and PrP^Sc): pulls down readily PrP^C from mouse brain homogenates; also recorded: binding to both PrP^C and PrP^Sc was detected
survival time (scrapie (RML) prions [5]): significant effect on increasing the survival time
weight loss (scrapie (RML) prions [5]): none of the treated mice experienced any weight loss
T cell proliferation [6]: augmented proliferation of Ag-specific T cells; also recorded: increased T cell proliferation
binding of PrP^C from normal sheep homogenate [7]: weak binding of PrP^C from normal sheep homogenate

B2: scFvW226: scFv: variable heavy and light chain domains of W226 connected by (Gly4Ser)3-linker, C-terminal myc- and his6-tags; SEQ ID NO:6 (protein)
scFv: MKYLLPTAAAGLLLLAAQPAMAMAEVQLQQSGAELARPGTSVNLSCKTSGYSFTGYGVSWVKQRIGQGLEWIGEIYPRSGNTYYNEKFKGKATLTADKSSNTAYMELRSLTSEDSAVYFCARWNWERDAMDYWGQGTSVTVSSAKTTPPSDYPLAGGGGSGGGGSGGGGSDIVMTQTPLSLPVSLGDQASISCRSSQSLESSSGYPHLNWYLQKPGQSPQLLIYRVSNRFSGVLDRFSGSGSGTDFTLQISRVEAEDLGVYFCLQITHVPWTFGGGTKLEIKRADAAPTVSAAEEQKLISEEDLEHHHHHH
modifications: C-terminal myc and His6 tags; scFv
PrP conformer recognized by immunoprecipitation / pull-down (PrP^C and PrP^Sc): recognizes both PrP^C and PrP^Sc; also recorded: could precipitate both PrP^C and PrP^Sc; also recorded: immunoprecipitated both PrP^C and PrP^Sc
number of sick n/n0 [8]: 0/5
survival time (scrapie (RML) prions [5]): significant effect on increasing the survival time
weight loss (scrapie (RML) prions [5]): none of the treated mice experienced any weight loss
T cell proliferation [6]: augmented proliferation of Ag-specific T cells; also recorded: increased T cell proliferation
antiprion activity (PrP^Sc in ScN2a cells [4]): antiprion active
concentrations with prion-clearing effects (PrP^Sc in ScN2a cells [4]): > 3.2 nM
minimal / smallest effective concentration clearing prions (PrP^Sc in ScN2a cells [4]): 4 nM
antiprion effect after transfection into ScN2a cells (PrP^Sc in ScN2a cells [9]): clear time-dependent antiprion effect
antiprion effect of conditioned medium of transfected N2a cells (PrP^Sc in ScN2a cells [9]): prions were cleared
binding activity to recombinant mouse PrP after heat incubation (recombinant mouse PrP [10]): retained binding activity
binding activity to recombinant mouse PrP after serum incubation (recombinant mouse PrP [10]): retained binding activity
